Experimental data: the supplement of paper PMC10567573

B1: USP39 (parent)
chain: FVEKNPTIVNFPITNVDLREYLSE
B2: CLCN6 (parent)
chain: ILRSQLVTLLVRGVCYSESQSSAS

Variants of: B1
Experiment: protein stability index of a GFP-peptide fusion (GPS, HEK-293T) (PSI 1-6); higher = more stable
Conditions: c terminus: a fixed tail appended
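Note: lentivirally expressed fusions sorted by FACS into six bins by GFP to DsRed ratio, PSI derived from sequencing read proportions per bin multiplied by bin number.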

Protein stability index, by site and new letter:
P6: A 3.96; D 2.39; V 2.38; S 3
L18: F 2.06; R 1.71; A 1.69; V 2.65; Q 2.64; E 2.05; D 2.21; P 1.24; M 1.64
I13: V 2.03; N 2.42; T 1.36; A 2.23; P 1.91; E 2.4; H 1.81
S23: H 2.76; Y 4.51
F11: K 2.05; V 1.82; A 1.85; C 2.01; L 1.88; I 2.42; S 1.77; H 2; P 2
F1: Y 1.99; N 4.08; M 3.36; V 3.89; I 3.4
L22: Q 2.44; C 1.12; D 1.64; S 2.49; A 2.47; P 1.84; M 2.07; R 1.66
E24: R 1.53; P 2.1; T 1.78; M 1.59; H 2.5
T7: K 1.74; P 1.55; R 1.98; F 1.8; Y 3.42
Y21: L 2.27; D 1.71; I 2.04; T 1.86; C 1.6; H 2.84; E 2.21; Q 1.87
E20: D 1.81; C 1.68; Y 2.88; R 1.41; I 2.01; P 2.02; N 1.55; A 1.46; Q 2.08; S 2.5; M 2.41
V9: Q 2.03; R 2.16; P 1.89; H 1.8; A 2.66; Y 3.09
N15: S 1.18; D 1.56; T 1.43; L 2.05; P 1.45; Y 2.3; I 2.26; V 2.27
D17: G 2.02; I 3.11; P 1.34; E 1.95; Q 1.92; A 2.46; W 1.4
N10: W 2.08; F 1.57; E 1.99; I 3.79; L 3.29
K4: Q 2.61; G 2.11; W 1.24; C 1.42; A 1.74
V2: L 2.43; D 3.79; P 2.96; F 2.74; S 3.02
V16: Y 1.62; M 2.37; R 2.78; C 1.41; F 1.8; P 2.29; H 1.49
I8: H 2.12; N 2.1; R 2.56; L 2.81; W 2.96; C 2.02
N5: C 1.44; P 1.67; H 1.96; Q 2.55; I 1.58; E 1.91; Y 2.83; V 2.05
E3: G 1.66; S 3.64; Y 2.21; T 1.15; R 1.38; L 1.27
R19: W 2.13; H 1.25; N 1.99; I 2.49; K 1.78; Y 2.1; S 1.31; L 2.06
P12: T 2.28; W 2.96; F 3.66; Q 1.74; M 3.23
T14: K 1.73; Y 1.97

Variants of: B2
Experiment: as above
Conditions: c terminus: a fixed tail appended

Protein stability index, by site and new letter:
I1: A 3.79; C 2.09; D 3.23; F 3.23; G 2.2; H 1.82; K 3.63; L 3.03; M 3.86; P 2.04; R 2.09; S 3.03; T 2.87; W 3.34
L2: C 3.49; D 1.66; E 1.93; F 2.44; G 2.64; H 1.3; I 3.02; K 2.42; M 3.88; N 2.06; P 2.01; Q 2.62; R 1.95; S 3.23; Y 3.62
R3: A 2.34; C 3.38; I 3.78; K 3.85; M 2.62; P 2.36; Q 3.3; V 2.67; W 3.08; Y 2.72
S4: D 2.21; E 3.85; H 3.41; I 3.85; K 2.19; L 2.56; M 2.78; N 2.54; T 2.68; V 2.58; W 3.61; Y 2.3
Q5: A 1.97; C 3.81; D 2.31; E 3.8; F 2.23; K 2.79; M 3.17; N 3.29; P 2.72; S 3.4; T 2.06; V 2.98; W 1.44; Y 3.81
L6: A 2.2; C 3.02; D 1.55; E 1.88; F 2.41; G 2.86; H 2.17; I 2.86; K 2.08; M 1.98; N 1.76; P 2.04; Q 1.66; R 2.67; S 1.42; T 2; V 1.64; W 3.18; Y 2.02
V7: A 2.81; C 2.66; D 2.45; E 2.37; G 1.75; H 2.63; I 2.83; K 2.23; L 3.31; M 2.25; N 1.99; P 1.98; Q 2.43; R 2.57; S 2.18; T 2.46; W 1.96; Y 3.04
T8: C 3.51; E 3.03; G 2.01; H 2.18; K 2.88; L 1.83; M 2.8; N 2.15; P 2.12; R 2.81; S 2.29; V 2.62; W 2.28; Y 2.21
L9: A 3.4; C 3.61; D 1.77; E 1.94; F 4.09; G 1.8; H 1.39; K 1.99; M 2.5; N 1.59; P 2.21; Q 1.69; R 1.6; S 1.6; T 2.92; W 2.83
L10: A 1.07; C 2.21; D 1.8; E 2.53; G 1.92; H 2.07; I 2.14; K 2.05; M 2.93; N 2.49; P 2.52; Q 1.72; R 2.14; S 1.31; T 2.46; V 1.92; W 3.87; Y 2.23
V11: A 2.77; C 2.1; D 2.02; E 1.54; G 2.39; H 2.78; K 2; L 4.2; M 3.46; N 3.1; P 2.1; Q 2; R 2.01; S 1.78; T 2.8; W 2.92; Y 2.19
R12: A 2.38; D 2; H 4.29; I 2.68; K 3.37; L 3.03; N 1.67; P 2.67; S 3.78; T 2.56; V 3.56; W 2.29
G13: D 3.12; E 1.72; F 4.5; H 3.18
